Earlier results, collected in publication PMC3478875.
Where two headings read alike, the source gives them in different places.

Experiments:
[1] = target: Lys-plasminogen (Homo sapiens) (UniProt P00747)
[2] = target: Glu-plasminogen (Homo sapiens) (UniProt P00747)
[3] = target: Glu-plasminogen (Homo sapiens) (UniProt P00747); remark: listed apart in the source
[4] = target: plasminogen (Homo sapiens) (UniProt P00747)
[5] = target: plasminogen (Homo sapiens) (UniProt P00747); remark: listed apart in the source
[6] = target: plasminogen (Homo sapiens) (UniProt P00747); remark: listed apart in the source
plasmin (Homo sapiens) = plasmin (Homo sapiens) (UniProt P00747)

Substance: alpha-enolase (from UniProt P69949)
- Kd [1]: 127 nM
- Kd [2]: 1.6 nM

Substance: Outer surface protein A (OspA) (from UniProt Q09087)
- Kd [3]: 260000 nM

Substance: DnaK (from UniProt B8DT62)
- Kd [4]: 12 nM

Substance: Fructose-1,6-bisphosphate aldolase (from UniProt P9WQA2)
- Kd [5]: 6.73 nM

Substance: GAPDH (from UniProt Q59906)
- Kd [6]: 220 nM
- Kd (plasmin (Homo sapiens)): 25 nM
